Sequences and labels used below:
T1: HD21 (huntingtin exon 1 protein with 21 polyQ repeats after cleavage of the GST tag; aggregation reaction) (human, UniProt P42858 1-88)
T1 chain: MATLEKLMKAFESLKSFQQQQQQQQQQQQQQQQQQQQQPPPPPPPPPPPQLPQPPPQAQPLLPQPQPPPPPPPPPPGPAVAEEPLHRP

T2: HD49 (huntingtin exon 1 protein with 49 polyQ repeats after cleavage of the GST tag; aggregation reaction) (human, UniProt P42858 1-88)
T2 chain: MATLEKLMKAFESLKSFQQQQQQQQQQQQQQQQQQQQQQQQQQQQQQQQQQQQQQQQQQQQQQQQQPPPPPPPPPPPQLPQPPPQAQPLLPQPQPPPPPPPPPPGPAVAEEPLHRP

B1: NI-302.11H6 (antibody, V domains shown)
VH: EVQLVQSGAVMKKPGDSVRVSCRASTYSFSTYSFTWVRQVPGQGLEWMGWISAYNGHTNYVDSFQGRLTLTTDTSASTAYMELRSLRSDDTAIYYCAAVDTTYYYYGMDVWGQGTLVTVSS
VL: QTVVTQEPTFSVSPGGTVTLTCALRFGSVSSSYYPSWFQQTPGQAPRTLIYSTNTRSSGVPARFSGSILGNKAALTIAGAQANDEADYYCVLYMGSGIGVFGGGTKLTVL
B2: NI-302.71F6 (antibody, V domains shown)
VH: QVQLQQWGAGLLKPSETLSLTCAVYGGSLSGYYWSWIRQPPGKGLEWIGEVNHSGGTNLNSSLKSRVIISVDKSKKQFSLKLSSVTAADTAMYFCARGYSYDPKYYFDSWSQGTLVTVSS
VL: QSALTQPASVSGSPGQAITISCTGTSSDIGSYDFVSWYQQDPGKAPKVIIYGVNKRPSGVSNRFSGSKSGNTASLTISGLQADDEADYYCCSYAGSTTWVFGGGTKLTVL
B3: NI-302.3D8 (antibody, V domains shown)
VH: EVQLVQSGGGLVQPGGSLRLSCEASGFIFKTYAMSWVRQLPGRGLEWVSAISATGGSTFYAESVKGRLTISRDTAKNTVYLQMNNLRAEDTAMYYCAKGSTAVYLFDSWGQGTLVTVSS
VL: DIQMTQSPSSLSASVGDRVTLTCRASQDIRNFLAWIQQKPGKPPKSLIYAASTLQSGVPSRFSGSGSGTDFTLTISSLHPEDFATYYCQQFYNYPPTFGQGTKVEIK
B4: NI-302.7A8 (antibody, V domains shown)
VH: EVQLVESGGGSVQPGGSLRLSCVASGFIFRNSWMTWVRQDPGKGLEWVANIKEDGSRTYYVDSVKGRFTISRDNAKNSLYLQMNSLRAEDTAVYYCARGDYNSGIYYFPGDYWGQGTLVTVSS
VL: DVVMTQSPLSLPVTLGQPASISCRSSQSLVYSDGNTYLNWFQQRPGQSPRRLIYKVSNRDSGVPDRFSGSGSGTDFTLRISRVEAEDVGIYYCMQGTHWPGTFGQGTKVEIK
B5: NI-302.55D8 (antibody, V domains shown)
VH: QVQLVQSGSEVKKPGASVKVSCKASGYTFTDYYIHWVRQAPGQGLEWMGRINPNNGGTNYAQNFQGWVTMTRDTSISTAYMELSRLRSDDTAVYYCARVGGELLREGGYHYYMDVWGKGTTVTVSS
VL: QSVLTQPPSVSGAPGQRVTISCTGNSSNIGAGYDVHWYQQLPGTAPKLLIFDNTNRPSGVPDRFSGSKSGTSASLAITGLQAEDEANYHCQSYDNSLSGSWVFGGGTKLTVL
B6: NI-302.78H12 (antibody, V domains shown)
VH: QVQLQESGPGLVKPSETLSLTCLVSSYSISNGYYWGWIRQPPGKGLEWIGSIYHNGNTYYNPSLKSRVIISVDTSKNQFSLKLRSVTAADTAVYYCAMPSATYYYGSGTQFHAFDVWGQGTTVTVSS
VL: QSALTQPRSVSGSPGQSVTISCTGTSRDVGNYNYVSWYQQHPGEVPKLIIYDVSERPSGVPDRFSGSKSGNTASLTISGLQAEDEADYYCCSYAGSYTFEVFGGGTKLTVL
B7: NI-302.46C9 (antibody, V domains shown)
VH: QVQLQESGPGLVKPSQTLSLTCTVSGASVSSGAYYWSWIRQPAGKRLEWIGRVYPTWSTNYNPSLESRVTISLDTSNNQFSLKLTSLTAADTAVYYCAREAPGDYDAAPLAYWGQGTLVTVSS
VL: DIQMTQSPSSLSASVGDRVTITCRASQYISHYLNWYRQKPGKAPQLVIYAASSLQSEVPSRFSGSGSGPEFTLTISSLQPEDFATYYCQQSYTTPRTFGQGTKLEIK
B8: NI-302.22H9 (antibody, V domains shown)
VH: EVQLVESGGGLVHPWGSLRVSCAASGFSVSNYAITWVRQAPGKGLEYISVIYRDGRTYYGDSVRGRFTISRDDSKNTIYLQMNSLRFEDTAVYYCARAHGQYYYGVDVWGQGTTVTVSS
VL: DVVMTQSPLSLSVSPGEPASISCRSSQSLLHSNGYNYLDWYRQKPGQSPQLLIYLNSNRASGVPDRFSGSGSGTEFTLTISRVEAEDVGVYYCMQSLQTFTFGGGTKVEIK
B9: NI-302.44D7 (antibody, V domains shown)
VH: EVQLVQSGGGLVQPGGSLRLSCAASGFTFSSYAMSWVRQAPGKGLEWVSGIGYSDTSTYYADSVKGRFTVSRDISKNTLYLQMNSLRAEDTAVYYCAKGTRDYYGMDVWGQGTMVTVSS
VL: QTVVTQEPSFSVSPGGTVTLTCGLSSGSVSTSYYPSWYQQTPGRAPRTLIYSTNTRSSGVPDRFSGSILGNKAALTITGAQADDESDYYCVLFMGSGIGVFGGGTRLTVL
B10: NI-302.37C12 (antibody, V domains shown)
VH: EVQLVESGGGLVQPGGSLRLSCVASALTVTNSQMTWVRRAPGRGLEWVSVIYTSGSAYYADSVKGRFTISRDNSKNTVFLQMNSLRVEDTAVYYCAKGPSAYYYGLDLWGQGTTVTVSS
VL: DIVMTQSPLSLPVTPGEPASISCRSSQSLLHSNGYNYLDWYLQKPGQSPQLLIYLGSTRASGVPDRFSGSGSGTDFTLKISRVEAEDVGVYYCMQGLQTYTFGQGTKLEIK

For the first assay, the target named is T1, HD21 (huntingtin exon 1 protein with 21 …). The experiment in a line: ELISA.
Regarding B1, the EC50 – broadly, the concentration giving half of the maximal effect – was found to be 1.22 nM.
On the same count and under the same terms, under B2 stands 7.6 nM.
In turn, B3 registered an EC50 of 0.02 nM.

The target of a further assay is T2, HD49 (huntingtin exon 1 protein with 49 …). The experiment in a line: ELISA.
In turn, B1 showed an EC50 of 0.16 nM.
With B2, a half-maximal effect (EC50) was put at 4.4 nM.
The molecule B3 registered an EC50 of 0.03 nM.

The next assay addresses T3, GST-HttExon1Q21 (recombinant huntingtin exon 1 protein with 21 polyQ repeats fused to an N-terminal GST tag) (;human, UniProt P08515 1-218 = GST; P42858 1-88). The experiment in a line: ELISA. In general terms: In an ELISA, binding on a coated surface is turned into a signal by an enzyme label.
On to B1, for which the EC50 was 0.24 nM.
On to B2, for which the EC50 was 3 nM.
As to B3, the EC50 worked out at 0.05 nM.

The target of another assay is T1, HD21 (huntingtin exon 1 protein with 21 …). Briefly: ELISA. The source holds these as a separate data set.
B4 yielded an EC50 of 0.4 nM.
B5: a half-maximal effect (EC50) was put at 1.2 nM.
B6 displayed an EC50 of 1.1 nM.

A further assay has as its target T2, HD49 (huntingtin exon 1 protein with 49 …). Briefly: ELISA. The source holds these as a separate data set.
Turning to B4, the EC50 was found to be 1.5 nM.
For the molecule B5, it took 1.7 nM to reach a half-maximal effect (EC50).
The molecule B6 yielded a concentration for a half-maximal effect (EC50) of 1.6 nM.

The target in another assay is T3, GST-HttExon1Q21 (recombinant huntingtin …). The experiment in a line: ELISA. This is another data set of the same source.
Turning to B4, the EC50 was 0.2 nM.
B5: the EC50 was about 0.2 nM.
B6: the EC50 stood at 0.5 nM.

The target in another assay is T1, HD21 (huntingtin exon 1 protein with 21 …). The experiment in a line: ELISA. The source holds these as a separate data set.
B7 returned an EC50 of 0.3 nM.

The target of another assay is T2, HD49 (huntingtin exon 1 protein with 49 …). Briefly: ELISA. This is another data set of the same source.
As for B7, the EC50 was about 0.05 nM.

The target of another assay is T3, GST-HttExon1Q21 (recombinant huntingtin …). Briefly: ELISA. This is another data set of the same source.
B7: the EC50 was about 0.07 nM.

The target in the next assay is T1, HD21 (huntingtin exon 1 protein with 21 …). Briefly: ELISA. The source holds these as a separate data set.
On to B8, for which the EC50 turned out to be 11 nM.
B9: the 50% effective concentration (EC50) worked out at 11 nM.
Take B10: the EC50 is 2.5 nM.

The next assay has as its target T2, HD49 (huntingtin exon 1 protein with 49 …). The experiment in a line: ELISA. The source holds these as a separate data set.
B8 yielded an EC50 of 21 nM.
In turn, B9 came in with an EC50 of 10 nM.
Same read-out and setting: next, B10: 4.9 nM.

The target in a further assay is T3, GST-HttExon1Q21 (recombinant huntingtin …). The experiment in a line: ELISA. This is another data set of the same source.
Turning to B8, the EC50 turned out to be 1.6 nM.
Consider B9, for which the half-maximal effective concentration (EC50) worked out at 5.4 nM.
In the case of B10, the EC50 was 0.3 nM.

The target in a further assay is T1, HD21 (huntingtin exon 1 protein with 21 …). The experiment in a line: ELISA. The source holds these as a separate data set.
On to B1, for which a half-maximal response (EC50) required 1.2 nM.
B8 displayed an EC50 of 11 nM.
Turning to B9, the EC50 is 11 nM.
In the case of B7, the response was half-maximal at 0.3 nM (EC50).
As to B4, the EC50 was 0.4 nM.
With B5, it took 1.2 nM to reach a half-maximal effect (EC50).
Same read-out and setting: under B2 stands 7.6 nM.
Same read-out and setting: under B6 stands 1.1 nM; under B10, 2.5 nM.
B3 came in with an EC50 of 0.02 nM.

In the next assay the target is T2, HD49 (huntingtin exon 1 protein with 49 …). Briefly: ELISA. The source holds these as a separate data set.
For B1, it took 0.2 nM to reach a half-maximal effect (EC50).
The molecule B8 came in with an EC50 of 22 nM.
In the case of B9, the EC50 came out at 10 nM.
Consider B7, for which a half-maximal effect (EC50) was put at 0.05 nM.
The molecule B4 came in with an EC50 of 1.5 nM.
Molecule B5 returned an EC50 of 1.7 nM.
Same read-out and setting: under B2 stands 4.4 nM; under B6, 1.6 nM.
The molecule B10 had an EC50 of 4.9 nM.
On the same count and under the same terms, next, B3: 0.03 nM.

The next assay deals with T3, GST-HttExon1Q21 (recombinant huntingtin …). Briefly: ELISA. The source holds these as a separate data set.
For B1, the EC50 was found to be 0.2 nM.
Take B8: the EC50 amounted to 1.6 nM.
For the molecule B9, the EC50 came to 5.4 nM.
Turning to B7, the EC50 amounted to 0.07 nM.
With B4, the EC50 was 0.2 nM.
The same measure, in the same setting: next, B5: 0.2 nM.
Regarding B2, the EC50 was 3 nM.
The same measure, in the same setting: next, B6: 0.5 nM; B10: 0.33 nM; B3: 0.05 nM.

Source of the values: patent publication US20170166631A1 (published 2017).
